# From article PMC10613268, “Shade-induced RTFL/DVL peptides negatively regulate the shade response by directly interacting with BSKs in Arabidopsis” (Nature Communications, 2023)
# Tests used:
# Conditions in all cases: both partners purified
# GST-BSK6 = target: T1, GST-BSK6 (Arabidopsis, UniProt Q9M324 1-490); assay: pull-down; in vitro (Fig. 4e): Sumo-His-RTFL18 on Ni-NTA beads, then GST or GST-BSK3/BSK6, 4 °C 2 h, 1 × PBS with 1 mM DTT; blot anti-GST, anti-His
# T1 construct: BSK6, Arabidopsis; full-length coding region cloned into pGEX4-T-1; source: E. coli BL21 (DB3); not shown: GST, N-terminal, kept
# GST-BSK3 WT [1] = target: T2, GST-BSK3 WT (Arabidopsis, UniProt Q8W4L3 1-489); assay: as above
# T2 construct: BSK3, Arabidopsis; full-length coding region cloned into pGEX4-T-1; source: E. coli BL21 (DB3), purified; not shown: GST, N-terminal, kept
# GST-BSK3 WT [2] = target: T2, GST-BSK3 WT; assay: pull-down; in vitro (Fig. 4l): purified GST-BSK3 WT on glutathione beads, then His-RTFL18 (WT, M1, M2), 4 °C 2 h, 1 × PBS with 1 mM DTT; blot anti-His, anti-GST
# T2 sequence (Q8W4L3 whole entry): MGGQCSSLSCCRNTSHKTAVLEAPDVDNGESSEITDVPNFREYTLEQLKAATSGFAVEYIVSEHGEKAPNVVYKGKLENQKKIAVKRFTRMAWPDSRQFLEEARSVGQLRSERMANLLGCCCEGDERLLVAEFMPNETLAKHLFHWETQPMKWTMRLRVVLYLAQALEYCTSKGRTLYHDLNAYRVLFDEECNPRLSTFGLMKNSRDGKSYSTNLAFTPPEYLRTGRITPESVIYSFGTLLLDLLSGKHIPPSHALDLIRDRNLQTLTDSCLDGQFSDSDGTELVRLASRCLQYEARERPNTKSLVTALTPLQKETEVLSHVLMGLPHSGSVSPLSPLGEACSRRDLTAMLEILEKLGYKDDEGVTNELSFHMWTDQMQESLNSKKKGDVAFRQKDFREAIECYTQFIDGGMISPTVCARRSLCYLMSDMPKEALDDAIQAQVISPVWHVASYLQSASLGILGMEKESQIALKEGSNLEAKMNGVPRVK
# T1 sequence (Q9M324 whole entry): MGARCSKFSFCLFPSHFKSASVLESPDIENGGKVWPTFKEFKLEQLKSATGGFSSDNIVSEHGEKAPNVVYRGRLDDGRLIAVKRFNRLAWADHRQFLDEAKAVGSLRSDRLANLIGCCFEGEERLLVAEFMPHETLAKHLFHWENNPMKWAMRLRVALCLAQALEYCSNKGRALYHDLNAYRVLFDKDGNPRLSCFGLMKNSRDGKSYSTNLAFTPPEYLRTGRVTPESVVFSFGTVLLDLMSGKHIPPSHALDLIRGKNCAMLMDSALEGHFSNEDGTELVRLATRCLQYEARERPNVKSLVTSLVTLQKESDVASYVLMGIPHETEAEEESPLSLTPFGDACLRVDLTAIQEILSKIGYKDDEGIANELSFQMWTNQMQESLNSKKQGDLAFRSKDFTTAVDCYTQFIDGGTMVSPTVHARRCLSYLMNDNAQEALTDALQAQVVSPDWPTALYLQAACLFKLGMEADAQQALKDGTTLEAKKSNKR
binding result (GST-BSK6),binding result (GST-BSK3 WT [1]),binding result (GST-BSK3 WT [2]),Binder
binds,binds,,"Sumo-His-RTFL18 (peptide, UniProt Q6X5V0 1-51, looked up, RTFL18 (DVL1), Arabidopsis; full-length coding region cloned into a pET-SUMO vector; source: E. coli BL21 (DB3); not shown: SUMO, N-terminal, kept; His, N-terminal, kept) MEMKRVMMSSAERSKEKKRSISRRLGKYMKEQKGRIYIIRRCMVMLLCSHD"
,,binds,"His-RTFL18 WT (peptide, UniProt Q6X5V0 1-51, looked up, RTFL18 (DVL1), Arabidopsis; full-length coding region cloned into a pET-SUMO vector; also called 6His-RTFL18 WT (wild type); source: E. coli BL21 (DB3), purified; not shown: His6, N-terminal, kept) MEMKRVMMSSAERSKEKKRSISRRLGKYMKEQKGRIYIIRRCMVMLLCSHD"
